Data reported in paper PMC10760634 (Genes & Development, 2023).

Molecular target: UBE2D2 (wild type) (UniProt P62837 1-147)
Test: ITC

UBE2D2 (wild type), sequence (P62837 whole entry): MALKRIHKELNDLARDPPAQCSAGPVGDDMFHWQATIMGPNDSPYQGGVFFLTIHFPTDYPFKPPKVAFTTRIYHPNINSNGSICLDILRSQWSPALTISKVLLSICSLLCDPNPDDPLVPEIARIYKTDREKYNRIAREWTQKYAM

B1: PHF7 (mPHF7 28–307) (domain or fragment)
chain: SSSPVCLLCLQEPGDPEKLGEFLQKDNLCVHYFCLILSSRLPQKGQPNRGLHGFMPEDIKREAVRASKKICFVCKKKGAAIRCQNDQCVQNFHLPCGQERGCLSQFFGEYKSYCRKHRPTQNIHQGSLGEESCVLCCENLSRTSVENIQSPCCSQAIYHRKCIQKYAHTSAKHFFKCPQCNNREEFPQEMLRMGIHIPDRDAAWELEPGAFSELYQRYRHCDAPICLYEQGRDSFEDEGRWRLILCATCGSHGTHRDCSSLRPNSKKWECNECLPASTTS
modifications: RED-NHS dye label (in the MST assay only)
**Q.** Does B1 bind?
**A.** Result: binds
